In PMC4521160, “Glass is a Viable Substrate for Precision Force Microscopy of Membrane Proteins” (Scientific Reports, 2015):

T1: bacteriorhodopsin from Halobacterium salinarum (Halobacterium salinarum), P02945
T1 chain: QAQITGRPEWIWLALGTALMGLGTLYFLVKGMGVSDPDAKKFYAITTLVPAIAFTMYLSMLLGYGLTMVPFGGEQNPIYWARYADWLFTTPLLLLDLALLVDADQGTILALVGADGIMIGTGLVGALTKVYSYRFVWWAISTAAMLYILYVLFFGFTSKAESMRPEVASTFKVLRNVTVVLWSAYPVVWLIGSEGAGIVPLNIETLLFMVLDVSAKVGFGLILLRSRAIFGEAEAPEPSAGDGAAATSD


How the values were obtained:
ATPase SecA = biological target: T2, ATPase SecA (E. coli, UniProt P10408 1-901); experiment: atomic force microscopy (AFM) imaging; proteoliposomes of coassembled SecYEG and SecA deposited on KOH-treated glass (height histograms also on mica); tapping mode, ~30 °C, 10 mM HEPES pH 8.0, 200 mM KAc, 5 mM MgAc2; single translocons tracked for >1800 s; conditions: both partners purified
T2 construct: SecA, ATPase of the general secretory system of E. coli; SecA was added for coassembly 'at 5 μM dimer'; Zinc is kept in SecA by the purification; also called peripheral membrane protein SecA; source: purified from the supernatant of lysed cells (QAE column)

[1] = biological target: T1, bacteriorhodopsin from Halobacterium …; experiment: atomic force microscopy (AFM) imaging; purple membrane on KOH-treated glass (20 mM Tris pH ~8.5, 200 mM KCl, 20 mM MgCl2) and on mica (10 mM Tris pH ~7.6, 150 mM KCl); tapping mode, ~30 °C; correlation averaging; conditions: remark: other sources report otherwise

T2 sequence (P10408 whole entry): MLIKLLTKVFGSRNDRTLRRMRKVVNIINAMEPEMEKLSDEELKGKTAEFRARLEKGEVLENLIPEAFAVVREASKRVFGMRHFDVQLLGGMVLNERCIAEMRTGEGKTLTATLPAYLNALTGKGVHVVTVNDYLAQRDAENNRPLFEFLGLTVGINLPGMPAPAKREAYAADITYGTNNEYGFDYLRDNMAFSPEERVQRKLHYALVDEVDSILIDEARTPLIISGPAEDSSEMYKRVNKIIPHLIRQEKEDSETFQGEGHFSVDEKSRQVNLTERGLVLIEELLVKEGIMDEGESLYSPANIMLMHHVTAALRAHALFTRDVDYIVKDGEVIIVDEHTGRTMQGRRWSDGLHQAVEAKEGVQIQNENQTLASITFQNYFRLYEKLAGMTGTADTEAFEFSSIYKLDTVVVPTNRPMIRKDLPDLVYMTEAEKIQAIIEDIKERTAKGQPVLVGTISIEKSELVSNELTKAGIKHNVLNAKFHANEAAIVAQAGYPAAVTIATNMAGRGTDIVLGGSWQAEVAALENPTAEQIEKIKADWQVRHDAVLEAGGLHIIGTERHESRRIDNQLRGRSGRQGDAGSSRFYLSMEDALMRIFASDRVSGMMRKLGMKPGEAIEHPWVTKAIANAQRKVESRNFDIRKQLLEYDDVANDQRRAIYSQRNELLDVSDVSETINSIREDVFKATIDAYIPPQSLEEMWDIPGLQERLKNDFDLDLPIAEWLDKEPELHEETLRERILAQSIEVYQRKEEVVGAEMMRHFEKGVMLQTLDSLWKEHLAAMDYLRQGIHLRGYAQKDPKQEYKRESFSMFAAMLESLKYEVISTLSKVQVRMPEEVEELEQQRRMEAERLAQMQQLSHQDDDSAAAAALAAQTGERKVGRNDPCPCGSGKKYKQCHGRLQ

Row | binding result (ATPase SecA) | stoichiometry N [1] | Binder
1 | binds |  | SecYEG translocon from Escherichia coli (complex, E. coli, SecY of the E. coli translocon SecYEG, with C329S and C385S; SecE of the E. coli translocon SecYEG; SecG of the E. coli translocon SecYEG; In the assay the complex stood in a lipid bilayer supported by glass (or mica); also called bacterial translocon; copies: + +) chain 1: MAKQPGLDFQSAKGGLGELKRRLLFVIGALIVFRIGSFIPIPGIDAAVLAKLLEQQRGTIIEMFNMFSGGALSRASIFALGIMPYISASIIIQLLTVVHPTLAEIKKEGESGRRKISQYTRYGTLVLAIFQSIGIATGLPNMPGMQGLVINPGFAFYFTAVVSLVTGTMFLMWLGEQITERGIGNGISIIIFAGIVAGLPPAIAHTIEQARQGDLHFLVLLLVAVLVFAVTFFVVFVERGQRRIVVNYAKRQQGRRVYAAQSTHLPLKVNMAGVIPAIFASSIILFPATIASWFGGGTGWNWLTTISLYLQPGQPLYVLLYASAIIFFSFFYTALVFNPRETADNLKKSGAFVPGIRPGEQTAKYIDKVMTRLTLVGALYITFISLIPEFMRDAMKVPFYFGGTSLLIVVVVIMDFMAQVQTLMMSSQYESALKKANLKGYGR chain 2: MSANTEAQGSGRGLEAMKWVVVVALLLVAIVGNYLYRDIMLPLRALAVVILIAAAGGVALLTTKGKATVAFAREARTEVRKVIWPTRQETLHTTLIVAAVTAVMSLILWGLDGILVRLVSFITGLRF chain 3: MYEALLVVFLIVAIGLVGLIMLQQGKGADMGASFGAGASATLFGSSGSGNFMTRMTALLATLFFIISLVLGNINSNKTNKGSEWENLSAPAKTEQTQPAAPAKPTSDIPN
2 |  | 3 | bacteriorhodopsin from Halobacterium salinarum, P02945 14-262 (natural protein, here or on the partner: retinal chromophore; retinal chromophore) QAQITGRPEWIWLALGTALMGLGTLYFLVKGMGVSDPDAKKFYAITTLVPAIAFTMYLSMLLGYGLTMVPFGGEQNPIYWARYADWLFTTPLLLLDLALLVDADQGTILALVGADGIMIGTGLVGALTKVYSYRFVWWAISTAAMLYILYVLFFGFTSKAESMRPEVASTFKVLRNVTVVLWSAYPVVWLIGSEGAGIVPLNIETLLFMVLDVSAKVGFGLILLRSRAIFGEAEAPEPSAGDGAAATSD
